The record followed here is article PMC11488288.

Data set [1] is described as follows: actinomycin D chase, RT-qPCR. Conditions: glycan lost; control: shYTHDF2 + Flag-YTHDF2 WT. For orientation: In qPCR the cycle at which signal appears reflects the starting amount.
Data set [2] can be described thus: nuclear/cytoplasmic fractionation and immunofluorescence.
A short description of data set [3]: HA-Ub, MG132, IP and immunoblot, NP cells.
Data set [4] is described as follows: in vitro ubiquitination with His-OGT and UDP-GlcNAc. Conditions: glycan lost; control: purified Flag-YTHDF2 WT.
Data set [5] is described as follows: cycloheximide chase, immunoblot, NP cells.
Data set [6] in a line: immunoblot, with or without MG132, CQ, BafA1. Conditions: glycan lost; control: untreated. Background: In western blotting, separated proteins are transferred to a membrane and probed.
Data set [7] is described as follows: IHC and Western blot of disc tissue. Conditions: glycan gained; control: IDD mice given saline.
A short description of data set [8]: immunoblot of endogenous YTHDF2, NP cells. Conditions: glycan gained; control: H2O2 alone.
Setting [9] is: glycan lost, control: Flag-YTHDF2 WT.
Where [10] appears, read: glycan gained, control: untreated Flag-YTHDF2 WT.

B1: YTHDF2: S263A (protein)
parent chain: MSASSLLEQRPKGQGNKVQNGSVHQKDGLNDDDFEPYLSPQARPNNAYTAMSDSYLPSYYSPSIGFSYSLGEAAWSTGGDTAMPYLTSYGQLSNGEPHFLPDAMFGQPGALGSTPFLGQHGFNFFPSGIDFSAWGNNSSQGQSTQSSGYSSNYAYAPSSLGGAMIDGQSAFANETLNKAPGMNTIDQGMAALKLGSTEVASSVPKVVGSAVGSGSITSNIVASSSLPPATIAPPKPASWADIASKPAKQQPKLKTKNGIAGSSLPPPPIKHNMDIGTWDNKGPVAKAPSQALVQNIGQPTQGSPQPVGQQANNSPPVAQASVGQQTQPLPPPPPQPAQLSVQQQAAQPTRWVAPRNRGSGFGHNGVDGNGVGQSQAGSGSTPSEPHPVLEKLRSINNYNPKDFDWNLKHGRVFIIKSYSEDDIHRSIKYNIWCSTEHGNKRLDAAYRSMNGKGPVYLLFSVNGSGHFCGVAEMKSAVDYNTCAGVWSQDKWKGRFDVRWIFVKDVPNSQLRHIRLENNENKPVTNSRDTQEVPLEKAKQVLKIIASYKHTTSIFDDFSHYEKRQEEEESVKKERQGRGK
B1: in data set [1], the “other: target mRNA stability” value is reported as “decreases”. Moreover, the localisation_or_trafficking result in data set [2] (setting [9]) is “no change”. The “other: ubiquitination” value in data set [3] (setting [9]) and in data set [4] was “increases” throughout. For the same protein, the degradation_or_half_life result in data set [5] (setting [9]) is on record as “decreases”.

B2: YTHDF2: OSMI-1 (protein)
parent chain: B1 parent chain
For the protein B2, the localisation_or_trafficking result in data set [2] (glycan lost, control: untreated) is given as “no change”. For the same protein, the expression_or_secretion result in data set [6] is “decreases”.

B3: YTHDF2: TMG (protein)
parent chain: B1 parent chain
As to B3, the localisation_or_trafficking result in data set [2] (glycan gained, control: untreated) is recorded as “no change”. The “other: ubiquitination” value in data set [3] (setting [10]) is reported as “changes”. In addition, the expression_or_secretion result in data set [7] and in data set [8] was “increases” each time. The degradation_or_half_life entry in data set [5] (setting [10]) is on record as “increases”.
